No end group written: not given here.

The target of test [1] is collagen II (thin coating on polystyrene tissue culture plate). Description: normalized fluorescence of PEG-fluorescein conjugated peptide on collagen II coated plate after washing; reference is scrambled collagen II binding peptide (FIG. 2I).
Test [2] concerns the target collagen I (thin coating on polystyrene tissue culture plate). Description: normalized fluorescence of PEG-fluorescein conjugated peptide on collagen I coated plate after washing; reference is scrambled collagen I binding peptide (FIG. 2D).

In turn, WYRGRL (also: conjugated to PEG-fluorescein, site not given here) [collagen II binding peptide conjugated to PEG-fluorescein] had a normalized fluorescence intensity relative to scrambled peptide (times that of scrambled peptide) in test [1] of 1.65.

In the case of YSFYSDESLQ (also: conjugated to PEG-fluorescein, site not given here) [collagen I binding peptide conjugated to PEG-fluorescein], the normalized fluorescence intensity relative to scrambled peptide (times that of scrambled peptide) in test [2] amounted to 1.55.
